The values that follow come from patent publication US20220112288A1 (published 2022).

Changes are numbered by the printed parent chain.

Experiment [1] concerns the target T1, human CD4 on cells (SKW3 cells; human PBMCs) (human, UniProt P01730 26-458).
T1 construct: whole, on cells; SKW3 CD4 knockout cells served as the negative cell line for the WT vs KO ratios; also called hCD4; SKW3 WT
Put plainly: FACS confirmation, supernatant on human PBMCs, anti-mFc 647, percent of viable cells.

The target in experiment [2] is T1, human CD4 on cells (SKW3 cells; human …). Kind of experiment: FACS confirmation, supernatant on SKW3 WT cells, anti-mFc 647 (Bkrd gMFI = 3300).
Experiment [3] has the same target. Put plainly: FACS confirmation, supernatant on SKW3 WT cells, anti-hu Kappa FITC (Bkrd gMFI = 2500).
The target is the same in experiment [4]. Kind of experiment: FACS confirmation, supernatant on human PBMCs, anti-mFc 647, CD4+ gate.
A further experiment addresses T2, huCD4-HIS (human, UniProt P01730 26-390, limits assumed).
T2 construct: Named only in the head of the ELISA binning column; not shown: HIS tag
Kind of experiment: ELISA binning; competitor Ibalizumab, 100 ng/mL huCD4-HIS, anti-HIS HRP detection (background 45, max binding 3000000). In general terms: An ELISA detects its analyte on a solid surface through an enzyme-linked reagent.

For experiment [5], the target named is T1, human CD4 on cells (SKW3 cells; human …). Put plainly: FACS primary screen, non-clonal hybridoma supernatant; SKW3 WT vs SKW3 CD4 KO cells, anti-hKappa-FITC.
Experiment [6] shares this target. Put plainly: FACS primary screen, non-clonal hybridoma supernatant; SKW3 WT vs SKW3 CD4 KO cells, anti-mFc-647.
Experiment [7] shares this target. Kind of experiment: SKW3 FACS binning; competitor OKT4-A488 added after supernatant (background 2163, max binding 8200).
Experiment [8] shares this target. Kind of experiment: SKW3 FACS binning; competitor OKT4a added after supernatant, anti-hu A647 secondary (background 5000, max binding 35000).
Experiment [9] has the same target. Put plainly: SKW3 FACS binning; competitor RPA-T4-PE-Dazzle 594 added after supernatant (background 783, max binding 15000).
Experiment [10] concerns the target T3, human CD8 on human pan T cells (CD4-negative population) (human, UniProt P01732 22-235; P10966 22-210).
T3 construct: whole, on cells; Target is CD8 as it stands on primary human pan T cells
Kind of experiment: flow cytometry, 20 nM antibody on human pan T cells, A647 anti-human IgG Fc; geomean ratio in CD4-negative population. For orientation: In flow cytometry, cells or beads pass a laser one at a time.

T3 sequence (P01732 22-235, chain 1 of 2): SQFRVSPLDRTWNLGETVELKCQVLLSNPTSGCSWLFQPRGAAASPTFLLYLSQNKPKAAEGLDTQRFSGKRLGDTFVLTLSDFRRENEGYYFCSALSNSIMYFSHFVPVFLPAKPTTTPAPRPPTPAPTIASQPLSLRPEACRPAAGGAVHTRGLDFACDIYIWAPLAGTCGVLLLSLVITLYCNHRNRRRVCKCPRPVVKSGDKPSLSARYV
T3 sequence (P10966 22-210, chain 2 of 2): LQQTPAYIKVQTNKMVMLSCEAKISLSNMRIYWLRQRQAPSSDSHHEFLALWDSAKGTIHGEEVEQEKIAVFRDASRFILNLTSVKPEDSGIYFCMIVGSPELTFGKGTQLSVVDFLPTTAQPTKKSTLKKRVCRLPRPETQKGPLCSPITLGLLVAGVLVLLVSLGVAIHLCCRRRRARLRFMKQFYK

B1: 75110_04H17A (antibody, V domains shown)
VH: QVQLQESGPGLVKPSETLSLTCTVSGGSISTYYWSWIRQSAGKGLEWIGRIYTSERPNYNPSLKSRVTMSVDTSKNQFSLKLNSVSAADTAVYYCARELERPYYYGMDVWGQGTTVTVSS
VL: DVQMTQSPSSLSASVGGRVTITCQASQDISNYLNWYQQKPGKAPKLLIYYASNLETGVPSRFSGSGSGTDFTFTISSLQPEDFATYYCQQYDNLPLTFGGGTKVEIK
notes: Tested as non-clonal hybridoma supernatant (AlivaMab Mouse Kappa), detected with anti-mouse Fc and anti-human kappa
Turning to B1, in experiment [1], the “CD4+ Percent Bound of Viable” value stood at 30%. Further, the values for the gMFI in [2] and in experiment [3] were 27200 gMFI and 7430 gMFI, respectively. Moreover, the “CD4+ gate RL1 Binding” value in experiment [4] is 302000. Besides, the “Ibalizumab ELISA binning signal” value in the experiment with huCD4-HIS came out at 1.89e+06. In addition, the “SKW3 WT vs KO anti-hKappa-FITC” value in experiment [5] turned out to be 1.6 fold. Moreover, in [6], the “SKW3 WT vs KO anti-mFc-647” value turned out to be 2.9 fold. Also, the “OKT4 A488 signal in binning” value in [7] is 9440. Also, the “OKT4a anti-hu A647 signal in binning” value in experiment [8] was 34000. Also, the “RPA-T4-PE-Dazzle 594 signal in binning” value in experiment [9] came to 16800.

B2: CD8B250 (antibody, human IgG1, kappa, V domains shown)
VH: QVQLKESGPGLVAPSQSLSITCTVSGFSLSNYVVHWVRQSPGKGLEWLGVIWTDGSTDYNAAFISRLSISKDNSKSQVFFKMNSLQADDTAIYYCARNNGYFPAFFAYWGQGTLVTVSA
VL: DIVMTQSQKFMSTSVGDRVSVTCKASQNVDTDITWYQQKPGQSPKALIYSASYRYSGVPDRFTGSGSGTDFTLTITNVQSEDLAEYFCQQYNSYPLTFGSGTKLEMKR
notes: Full-length human IgG1, kappa
In the case of B2, in experiment [10], the “Cell Binding to Human PanT Signal/Background (of CD4 negative population)” value was found to be 61 signal/background.

B3: CD8B366 (antibody, human IgG1, kappa, V domains shown)
VH: EVQLQQSGPELVRPGASVKLSCTASGFNIKDDYIHWVKQRPEQGLEWIGRIDPANGNPRYAPKFQDKATLTADTSSNTAYLQLSSLTSEDTAVYYCARDDEGYYYFDVWGAGTSVTVSS
VL: DIKMTQSPSYLAASPGETITINCRASKSISKYLAWYQEKPGKTNKVLIYSGSTLQSGIPSRFSGSGSGTDFTLTISSLEPEDFAIYYCQQHNEYPLTFGDGTRLEIKR
notes: Full-length human IgG1, kappa
In the case of B3, the “Cell Binding to Human PanT Signal/Background (of CD4 negative population)” value in [10] stood at 318 signal/background.

B4: CD8B311 (antibody, human IgG1, kappa, V domains shown)
VH: QVQLKESGPELVKPGASVKLSCKASGYTFTSYWMHWVKQRPGQGLEWIGMIHPNSGSTNYNEKFKSKATLTVDKSSSTAYMQLSSLTSEDSAVYYCARCGYDGAWFAYWGQGTSVTVSS
VL: DIQMTQTTSSLSASLGDRVTISCSASQGISNCLNWYQQKPDGTVKLLIHYTSSLHSGVPSRFSGGGSGTHYSLTISNLEPEDIATYYCQQYSKVPYTFGSGTKLEIKR
notes: Full-length human IgG1, kappa
Consider B4, for which the “Cell Binding to Human PanT Signal/Background (of CD4 negative population)” value in experiment [10] was 1 signal/background.

B5: CD8B248 (antibody, human IgG1, kappa, V domains shown)
VH: EVQLQQSGAELARPGASVKMSCKASGYTFTTYTMHWVKQRPGQGLEWIGYINPSSGYTKYNQKFTDKATLTADKSSSTAYMQLSSLTSEDSAVYYCARLWAYWGQGTLVTVSA
VL: DVVMTQTPLSLPVSLGDQASISCRSSQSLVHSSGNTYLHWYLQKPGQSPKLLIYKGSNRFSGVSDRFSGSGSGTDFTLKISRVEAEDLGVYFCSQSTHVPFTFGSGTKLEMKR
notes: Full-length human IgG1, kappa
With B5, the “Cell Binding to Human PanT Signal/Background (of CD4 negative population)” value in experiment [10] came out at 20 signal/background.

B6: CD8B254 (antibody, human IgG1, kappa, V domains shown)
VH: EVQLQQSGAELVKPGASVKMSCKTSGYTFSSYWITWVKQRPGQGLEWVGDIYPGSGSTNYNEKFKSKAALTVDTSSSTAFMQLNSLTSEDSAVYYCARESITTRITPFDHWGQGTTLTVSS
VL: B5 VL with M111I
notes: Full-length human IgG1, kappa
Turning to B6, the “Cell Binding to Human PanT Signal/Background (of CD4 negative population)” value in [10] worked out at 23 signal/background.

B7: CD8B186 (antibody, human IgG1, kappa, V domains shown)
VH: QVQLQQSGAELAKPGASVKMSCKASGYIFTSYWMHWVKQRPGQGLEWIGNINPSSGYAVYNQKFKDKATLTADQSSSTAYIQLNSLTSEDSAVYYCARRVFYGDSWFAYWGQGTSVTVSS
VL: DVQMIQSPASLSASVGETVTITCRASGNIHNYLAWYQQKQGKSPQLLVYNAKTLADGVPSRFSGSGSGTQYSLKINSLQPEDFGSYYCQHFWSTTWTFGGGTKLEIKR
notes: Full-length human IgG1, kappa
For the molecule B7, the “Cell Binding to Human PanT Signal/Background (of CD4 negative population)” value in experiment [10] came to 36 signal/background.

B8: CD8B192 (antibody, human IgG1, kappa, V domains shown)
VH: QVQLQQSGPVLVKPGASVKMSCKASGYTFTDYYMNWVMQSHGKSLEWIGVINPYNGGTTYNQRFTGKATLTVDKSSSTAYMELNSLTSEDSAVYYCARNYGAMDSWGQGTSVTVSS
VL: B7 VL with V2I, I5T, Y49S, S63G, S93I, T95P, W96P, G100A, K103R
notes: Full-length human IgG1, kappa
B8: in experiment [10], the “Cell Binding to Human PanT Signal/Background (of CD4 negative population)” value is 22 signal/background.

B9: CD8B337 (antibody, human IgG1, kappa, V domains shown)
VH: QVTLKESGPGKVQPSQTLSLTCSFSGFSLSTSGMGVSWIRKPSGKGLEWLAHIFWDDDRRYKSSLKSRLTISKDTSSNQVFLMITSVDTADSATYYCARRVGYGDYAYFDVWGAGTTVTVSS
VL: DIQMTQYPASLSVSVGETVTITCRASENIYSDLAWYQQKQGKSPQLLVYAATNLADGVPSRFSGSGSGTQYSLKINSLQSEDFGNYYCQHFWGTPWTFGGGTKLEIKR
notes: Full-length human IgG1, kappa
As to B9, in experiment [10], the “Cell Binding to Human PanT Signal/Background (of CD4 negative population)” value turned out to be 1980 signal/background.

B10: CD8B245 (antibody, human IgG1, kappa, V domains shown)
VH: EFQLQQSGGGLVQPGGSLSLSCAAPGFTFTDYYMSWVRQSPGKALEWLALSRNKGNGYTTEYSASVKGRFTISRDNSQSILYLQMNVLRAEDSATYYCARTVTGTLFYYALDYWGQGTTVTVSS
VL: DIQMTQSPASLSASVGETVTITCRASENIYSYLAWYQQKQGKSPQFLVYNAKTLAAGVPSRFSGSGSGTQFSLKINRLQPEDFGTYYCQHHYGTPLTFGDGTRLEIKR
notes: Full-length human IgG1, kappa
For B10, the “Cell Binding to Human PanT Signal/Background (of CD4 negative population)” value in [10] was 44 signal/background.

B11: CD8B324 (antibody, human IgG1, kappa, V domains shown)
VH: QVQLQQPGADLVKPGASVKLSCKASGYTSTSHWIHWVKQRPGQGLEWIGNIYPGSSSTNYNEKFKRMATLTVDTSSSTVYMVLSSLTSDDSAVYYCARHSPGHRDYAMDYWGLGTSVTVSS
VL: DIVMTQSQKFMPTTVGDRVSITCKASQNVGTAVAWYQQKPGQSPKLLIASASNRYTGVPDRFTGSGSGTDFTLTISTMQSEDLADYFCQQYSTYPLTFGAGTKLEMKR
notes: Full-length human IgG1, kappa
Turning to B11, in experiment [10], the “Cell Binding to Human PanT Signal/Background (of CD4 negative population)” value worked out at 1610 signal/background.

B12: CD8B340 (antibody, human IgG1, kappa, V domains shown)
VH: QVQLQQPGAELVKPGASVRLSCKASGYTFTNYWMQWVQQRPGQGLEWIGEIDPSDTFTNYNQNFKDKATLTVDTSSSTAYLQLSSLTSEDSAVYYCARGDWDRDWYFDVWGTGTLVTVSA
VL: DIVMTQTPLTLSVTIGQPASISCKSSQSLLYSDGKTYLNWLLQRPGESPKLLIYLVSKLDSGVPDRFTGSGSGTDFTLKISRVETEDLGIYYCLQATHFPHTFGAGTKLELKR
notes: Full-length human IgG1, kappa
As for B12, in [10], the “Cell Binding to Human PanT Signal/Background (of CD4 negative population)” value amounted to 8 signal/background.

B13: 75110_05E05A (antibody, V domains shown)
VH: QVQLQESGPGLVKPSETLSLTCTVSGGSIGSYYWSWIRQPAGKGLEWIGRIYTSGSTNYNPSLKSRVTMSFDTSKNQFSLKLNSVTAADTAVYYCATDGGVGDSLDYWGQGTLVTVSS
VL: DIVMTQTPLSLPVTPGEPASISCRSSQSLLDSDDGNTYLDWYLQKPGQSPQLLIYTLSYRASGVPDRFSGSGSGTDFTLKISRVEAEDVGVYYCMQHIEFPFTFGPGTKVDIK
notes: as for B1
For the molecule B13, the “CD4+ Percent Bound of Viable” value in experiment [1] was found to be 28%. For the same molecule, the results for the gMFI in [2] and in [3] were 38800 gMFI and 8320 gMFI, respectively. Besides, in experiment [4], the “CD4+ gate RL1 Binding” value was 227000. Besides, in the experiment with huCD4-HIS, the “Ibalizumab ELISA binning signal” value worked out at 1.64e+06. Further, the “SKW3 WT vs KO anti-hKappa-FITC” value in [5] worked out at 3.2 fold. Further, the “SKW3 WT vs KO anti-mFc-647” value in experiment [6] is 9.4 fold. In addition, the “OKT4 A488 signal in binning” value in experiment [7] was 9100. Moreover, the “OKT4a anti-hu A647 signal in binning” value in [8] stood at 35500. Further, the “RPA-T4-PE-Dazzle 594 signal in binning” value in experiment [9] was determined as 16500.

B14: CD8B362 (antibody, human IgG1, kappa, V domains shown)
VH: EVKLVESGAELVKPGASVKLSCTASGFNIKDTYMHWVKQRPEQGLEWIGRIDPANGHTKFDPKFQGKATITADTSSNTAYLQLSSLTSEDTAVYYCAIRFAYWGQGTLVTVSA
VL: DIQMTQSPSSLSASLGDRVSLTCRASHEISGYLSWLQQKPDGTFKRLIYAASTLDSGVPKRFSGSRSGSDYSLSISSLESEDFADYYCLQYSSYPYTFGSGTKLEMKR
notes: Full-length human IgG1, kappa
B14: the “Cell Binding to Human PanT Signal/Background (of CD4 negative population)” value in [10] came to 4 signal/background.
